The nature of series [1]: Intravenous pharmacokinetics in healthy BALB/c mice. Here is the method:
Pharmacokinetics and biodistribution Pharmacokinetics and biodistribution experiments were performed to study the concentration of ABD-Dox in blood and tissues over time following intravenous (i.v.) administration. For the pharmacokinetic study, ABD-Dox and Dox in PBS and AlDox in 10 mM sodium phosphate, 5% D-(+)-glucose, pH 5.8 were injected at 5 mg Dox Equiv. per kg of body weight (BW) into healthy BALB/c mice. 10 μL blood samples were collected at 40 s, 15 min and 30 min, and 2, 4, 8, 24, 48, 72 and 96 h post injection and were diluted into heparinized PBS (1 kUmL^−1), and centrifuged at 4,000 rcf, 10 min, 4° C. to collect the plasma. 10 μL of the plasma samples were then diluted in 490 μL of acidified isopropanol (0.075 M HCl, 10% water) and incubated overnight at 4° C. For the biodistribution study, ABD-Dox and Dox in PBS were injected at 5 mg Dox Equiv.kg^−1 BW into C26 tumor-bearing BALB/c mice. At 2 h, 24 h, and 72 h post-injection, mice were sacrificed and tumor, heart, lung, liver, spleen, kidney and muscle tissues were dissected, weighed, homogenized in acidified isopropanol using a Mini-Beadbeater (Biospec, Bartlesville, OK) with 2 mm diameter zirconia beads for 1-2 min, and were incubated overnight at 4° C. Following overnight incubation in acidified isopropanol, plasma and tissue samples were centrifuged at 16,000 rcf, 4° C. for 10 min and the supernatants were loaded onto black 96-well plates in duplicate and the Dox fluorescence was measured using on a Victor3 microplate reader (Perkin Elmer, Waltham, MA) with fluorescence excitation at 485 nm and emission at 590 nm. Tissues were also dissected from three untreated mice, processed in the same manner, serially diluted, and loaded on the plates to prepare a standard curve of fluorescence intensity versus the weight for each tissue from which the background tissue fluorescence was calculated and subtracted for each sample. Serial dilution of free Dox in acidified isopropanol was used as standard to quantify the Dox concentration as […] per liter of plasma (μM) and as the percent of the injected dose per gram (% ID g^−1) in the tumor and other tissues. Plasma concentrations of Dox Equiv. of ABD-Dox versus time were fit to a two-compartment model using SAAM II software (SAAM Institute, Seattle, WA) and the elimination half-life and the area-under-curve were computed. The tissue concentration of Dox. Equiv. of ABD-Dox and free Dox at each time point were compared in GraphPad Prism software (GraphPad, San Diego, CA) by Student's t-test with P<0.05 considered statistically significant.

Series [2] addresses T1, mouse serum albumin (MSA) (Mus musculus, UniProt P07724).
T1 construct: purchased Sigma-Aldrich (St. Louis, MO)
In words: Native-PAGE mobility shift with MSA. Type of series: binding. Particulars: 1:1 molar ratio. Here is the method: The gel was stained with SimplyBlue stain according to the manufacturer's instructions and imaged using the Gel Doc imaging system (Bio-Rad, Hercules, CA). Isothermal titration calorimetry was done using a standard volume Nano ITC from TA instruments (Lindon, Utah). […] The calorimetric data were analyzed by NanoAnalyze software (TA instruments, Lindon, UT) and were fit to an independent binding site model to compute the thermodynamic parameters including dissociation constant (KD), binding stoichiometry (n), enthalpy (ΔH), and entropy (ΔS).

In the next series the test system is MIA PaCa-2 cells. In words: In vitro cytotoxicity (MTS, 72 h) MIA PaCa-2. The format is cell-based, human. Particulars: 72 h incubation, Dox Equiv. concentration. Here is the method:
In vitro cytotoxicity C26 murine colon carcinoma cells and three different pancreatic cancer cell lines, BxPC-3, AsPC-1, and MIA PaCa-2, were used to study the in vitro cytotoxicity of ABD-DOX and Dox. Cells were cultured and grown as monolayers at 37° C. with C02 in a humidified incubator and were passaged at ˜80% confluency using 0.05% trypsin-EDTA (Invitrogen, Carlsbad, CA). C26, BxPC-3, AsPC-1, and MIA PaCa-2 cells were seeded in 96-well plates (5,000 cells/well) and incubated overnight. Three-fold serial dilutions of drug were then added to the wells in triplicate and also to control wells (media with no cells) to correct for the background Dox absorbance. After 72 h treatment, 20 μL MTS reagent was added to each well and was incubated for 3 h at 37° C., and the absorbance at 490 nm was measured using a Victor3 plate reader (Perkin Elmer, Boston, MA). Cell viability (%) was defined as the percentage of the absorbance of the drug-treated cells relative to buffer-treated cells and IC50 values were determined using logistic non-linear regression analysis with GraphPad Prism software. The IC50 was defined as the Dox Equiv. concentration of formulations resulting in 50% growth inhibition compared with a negative control, buffer-treated cells.

The nature of series [3]: Dose-escalation study, maximum tolerated dose. Type of series: in vivo, BALB/c mice. Here is the method:
With these encouraging biodistribution results in hand, tumor regression in vivo by ABD-Dox was investigated. The maximum tolerated dose (MTD) of ABD-Dox was established in healthy mice. A range of doses of ABD-Dox were injected into healthy BALB/c mice, and body weight loss and mortality of the mice were monitored over a two-week period to assess systemic toxicity. […] Using these criteria, the MTD was determined to be 20 mg Dox Equiv.kg^−1 for ABD-Dox (FIG. 7) and 10 mgkg^−1 BW MTD of free Dox (FIG. 8).

pIC50: −log10 of the molar value. “And” between values parts separate entries of the source, which are not always exact repeats. Identical values can stand only once.

The text below walks through data of patent publication US12296018B2, “Albumin binding peptide-drug (AlBiPeD) conjugates and methods of making and using same” (priority 2018, dated 2025).

T1 sequence (P07724 25-608): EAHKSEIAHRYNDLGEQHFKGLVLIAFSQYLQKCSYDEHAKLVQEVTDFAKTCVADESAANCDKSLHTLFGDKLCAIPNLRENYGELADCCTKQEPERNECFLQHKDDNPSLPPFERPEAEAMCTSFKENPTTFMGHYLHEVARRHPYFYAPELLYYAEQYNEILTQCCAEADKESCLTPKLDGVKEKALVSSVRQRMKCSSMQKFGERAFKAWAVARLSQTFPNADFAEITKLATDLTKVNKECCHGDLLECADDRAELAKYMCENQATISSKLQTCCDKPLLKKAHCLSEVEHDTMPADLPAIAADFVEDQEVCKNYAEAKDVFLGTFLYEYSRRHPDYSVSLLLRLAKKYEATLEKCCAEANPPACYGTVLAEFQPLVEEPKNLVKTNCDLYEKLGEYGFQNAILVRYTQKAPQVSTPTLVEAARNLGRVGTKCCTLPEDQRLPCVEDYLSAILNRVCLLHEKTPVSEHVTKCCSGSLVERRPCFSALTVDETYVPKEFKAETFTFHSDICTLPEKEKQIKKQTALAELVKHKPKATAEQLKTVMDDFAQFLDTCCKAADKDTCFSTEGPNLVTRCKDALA

Consider “ABD-Dox (GLAEAKVLANRELDKYGVSDYYKNLINNAKTVEGVKALIDEILAALPCGGCGGCGGCGG)”, for which the “drug in plasma at late time point” value in series [1] (96 h after injection) is “detectable in plasma even 96 h after injection”. For the same substance, the “Area under curve (total plasma exposure)” value in series [1] (i.v., 5 mg Dox Equiv. per kg BW, plasma) worked out at 2263.6 ± 44.7 µM·h. Moreover, in series [1] (i.v., 5 mg Dox Equiv. per kg BW, plasma, two-compartment model), the Elimination half-life was 29.4 ± 0.8 h and 29.4 h. The “area under the curve, fold higher than AlDox” value in series [1] (mouse, in vivo) worked out at 3 fold. In series [2], the “binding to MSA by mobility shift” value is “confirmed binding”. For the same substance, in the series on MIA PaCa-2 cells, the pIC50 (in general, −log10 of the IC50, conventionally taken in molar units) was 5.85. In series [3] (i.v., healthy BALB/c mice, two weeks, no mortality or body weight loss greater than 15%), the “maximum tolerated dose (MTD)” value was determined as 20 mg Dox Equiv.kg^−1. Moreover, in series [3] (mouse, in vivo), the “maximum tolerated dose, fold higher than free drug” value was determined as 2 fold.
